According to patent US20220332804A1 (CSL INNOVATION, published 2022):
Positions count from the first letter of the chain named.

Legend:
Assay in all cases: SPR, antibody captured, C2 as analyte;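 also: biacore SPR at 37 °C, anti-C2 mAbs captured via goat anti-human IgG on CM5 chips, double-referenced sensorgrams fit to a 1:1 kinetic or steady-state model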
[1] = molecular target: T1, human C2 V455A (human, UniProt P06681 21-752)
T1 sequence: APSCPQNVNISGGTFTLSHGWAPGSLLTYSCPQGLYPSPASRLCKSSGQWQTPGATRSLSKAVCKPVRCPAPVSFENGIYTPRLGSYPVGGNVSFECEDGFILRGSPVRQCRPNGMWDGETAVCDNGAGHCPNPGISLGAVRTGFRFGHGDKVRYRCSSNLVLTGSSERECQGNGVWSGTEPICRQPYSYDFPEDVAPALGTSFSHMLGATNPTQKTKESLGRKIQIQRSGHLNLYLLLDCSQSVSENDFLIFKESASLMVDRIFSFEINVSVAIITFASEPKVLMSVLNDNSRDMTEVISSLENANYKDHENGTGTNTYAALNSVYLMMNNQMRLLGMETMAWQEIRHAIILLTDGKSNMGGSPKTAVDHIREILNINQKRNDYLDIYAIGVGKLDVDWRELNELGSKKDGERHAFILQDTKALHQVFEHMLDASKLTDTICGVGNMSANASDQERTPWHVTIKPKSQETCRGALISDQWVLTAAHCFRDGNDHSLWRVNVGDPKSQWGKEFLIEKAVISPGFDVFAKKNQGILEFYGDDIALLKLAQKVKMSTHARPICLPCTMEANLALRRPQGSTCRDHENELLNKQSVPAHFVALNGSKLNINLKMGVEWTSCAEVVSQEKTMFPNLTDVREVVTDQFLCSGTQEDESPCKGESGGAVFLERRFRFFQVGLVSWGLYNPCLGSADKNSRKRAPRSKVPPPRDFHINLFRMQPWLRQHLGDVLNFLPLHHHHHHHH

[2] = molecular target: T2, human C2 H435A (human, UniProt P06681 21-752)
T2 sequence: T1 sequence with H415A, A435V

[3] = molecular target: T3, human C2 L271A (human, UniProt P06681 21-752)
T3 sequence: T1 sequence with L251A, A435V

[4] = molecular target: T4, human C2 L279A (human, UniProt P06681 21-752)
T4 sequence: T1 sequence with L259A, A435V

B1: RF16-226 (antibody, human IgG4 S228P, lambda)
heavy: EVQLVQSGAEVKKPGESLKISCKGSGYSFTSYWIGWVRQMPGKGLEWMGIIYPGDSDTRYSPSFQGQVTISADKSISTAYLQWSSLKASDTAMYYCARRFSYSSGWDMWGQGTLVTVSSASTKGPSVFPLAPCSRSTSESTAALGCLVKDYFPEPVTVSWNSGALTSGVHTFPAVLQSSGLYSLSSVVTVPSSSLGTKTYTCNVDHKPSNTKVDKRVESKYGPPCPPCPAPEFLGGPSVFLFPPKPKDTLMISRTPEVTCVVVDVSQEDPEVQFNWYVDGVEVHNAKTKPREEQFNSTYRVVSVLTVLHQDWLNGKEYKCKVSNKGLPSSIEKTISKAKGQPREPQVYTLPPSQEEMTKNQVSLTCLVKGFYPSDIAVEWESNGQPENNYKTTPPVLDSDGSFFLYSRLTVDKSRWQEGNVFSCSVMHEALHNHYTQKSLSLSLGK
light: SYELTQPPSVSVSPGQTARITCSGDALTSKYVAWYQQKSGLAPLLVIYEDTRRPSGIPAKFSGSSSGSVATLTISGAHGDDEADYYCYSTDASGHQRVFGGGTKLTVLSQPKAAPSVTLFPPSSEELQANKATLVCLISDFYPGAVTVAWKADGSPVKAGVETTKPSKQSNNKYAASSYLSLTPEQWKSHRSYSCQVTHEGSTVEKTVAPTECS
notes: pH-dependent anti-C2 antibody from a phage display library; also called WT
Kd [1]: 9 nM
Kd [2]: 24.3 nM
Kd [3]: 10.8 nM
Kd [4]: 54.4 nM
